The target of test [1] is rat serum albumin (rat, UniProt P02770 25-608). Nature of the test: ProteOn kinetic analysis.
Test [2] deals with mouse serum albumin (mouse, UniProt P07724 25-608). Nature of the test: ProteOn kinetic analysis.
The target in test [3] is T1, human serum albumin (human, UniProt P02768 25-609).
T1 construct: Amine-coupled to the chip (EDC/NHS); also called HSA
Nature of the test: ProteOn kinetic analysis.

Test [4] deals with guinea pig serum albumin (guinea pig). Kind of test: ProteOn kinetic analysis.
In test [5] the target is cyno serum albumin (cyno, UniProt A2V9Z4 25-608). Nature of the test: ProteOn kinetic analysis.
For test [6], the target named is T1, human serum albumin. Kind of test: ProteOn SPR; Nanobody on immobilized human serum albumin; Langmuir simultaneous ka/kd fit.
Description: (§1) PBS/Tween (phosphate buffered saline, pH7.4, 0.005% Tween20) was used as running buffer and the experiments were performed at 25° C. […] After immobilization, surfaces were deactivated with ethanolamine HCl (flow rate 30 μl/min). Nanobodies were injected for 2 minutes at 45 μl/min over the HSA surface to render a Nanobody capture level of approximately 200 RU. […] After each cycle (i.e. before a new Nanobody capture and blood sample injection step) the HSA surfaces were regenerated with a 2 minute injection of HCl (100 mM) at 45 μl/min. Sensorgram processing and data analysis was performed with ProteOn Manager 3.1.0 (Bio-Rad Laboratories, Inc.).
(§2) Also, for the serum albumin binders tested, a kinetic analysis was performed of the binding interaction with the immobilized serum albumin (Langmuir, simultaneous ka/kd model).
The target in test [7] is T1, human serum albumin. The description is as above. This is another data set of the same source.
Description: as §1, §2
Test [8] deals with T1, human serum albumin. Described as above. This is another data set of the same source.
Description: as §1, §2
The target in test [9] is T1, human serum albumin. Described as above. This is another data set of the same source.
Description: as §1, §2
Test [10] deals with T1, human serum albumin. The test is described as above. The source holds these as a separate data set.
Description: as §1, §2

The values that follow come from patent US20220380445A1 (Ablynx, published 2022).

In general, Kd refers to a measure of binding affinity in units of concentration. One may read the koff as the rate constant with which the complex falls apart. A high value points to fast dissociation. As a reminder, the kon is the rate constant with which the complex forms.

Chain of rat serum albumin (P02770 25-608 limits assumed): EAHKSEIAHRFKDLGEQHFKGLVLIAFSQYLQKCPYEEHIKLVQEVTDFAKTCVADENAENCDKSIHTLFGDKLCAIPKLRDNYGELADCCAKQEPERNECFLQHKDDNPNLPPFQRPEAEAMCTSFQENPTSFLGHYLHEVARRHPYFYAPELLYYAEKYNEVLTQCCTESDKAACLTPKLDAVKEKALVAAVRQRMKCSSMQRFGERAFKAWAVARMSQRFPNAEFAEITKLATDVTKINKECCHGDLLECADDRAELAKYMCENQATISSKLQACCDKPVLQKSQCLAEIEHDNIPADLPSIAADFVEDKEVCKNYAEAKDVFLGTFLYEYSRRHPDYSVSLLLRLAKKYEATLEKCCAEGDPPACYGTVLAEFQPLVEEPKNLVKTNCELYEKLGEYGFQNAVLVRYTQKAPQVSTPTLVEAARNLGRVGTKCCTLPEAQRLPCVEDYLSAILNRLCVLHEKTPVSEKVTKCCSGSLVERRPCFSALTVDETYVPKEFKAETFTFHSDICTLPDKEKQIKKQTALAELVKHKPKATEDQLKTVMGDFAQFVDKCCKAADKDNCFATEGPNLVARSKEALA
T1 sequence (P02768 25-609 limits assumed): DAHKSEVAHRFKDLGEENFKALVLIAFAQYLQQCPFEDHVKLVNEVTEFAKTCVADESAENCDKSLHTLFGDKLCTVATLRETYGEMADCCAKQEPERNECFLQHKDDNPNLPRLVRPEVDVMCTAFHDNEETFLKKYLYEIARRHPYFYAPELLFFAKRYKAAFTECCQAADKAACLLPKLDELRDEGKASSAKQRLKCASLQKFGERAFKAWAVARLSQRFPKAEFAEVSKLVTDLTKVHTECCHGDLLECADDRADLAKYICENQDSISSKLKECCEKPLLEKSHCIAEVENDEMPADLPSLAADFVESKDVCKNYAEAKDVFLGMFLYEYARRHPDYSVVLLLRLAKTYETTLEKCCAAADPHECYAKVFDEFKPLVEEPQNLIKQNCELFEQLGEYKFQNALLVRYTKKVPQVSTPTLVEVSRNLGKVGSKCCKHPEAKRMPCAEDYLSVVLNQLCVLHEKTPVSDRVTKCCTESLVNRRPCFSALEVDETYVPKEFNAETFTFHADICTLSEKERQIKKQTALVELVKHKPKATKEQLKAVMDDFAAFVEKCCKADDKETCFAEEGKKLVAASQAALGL
Chain of cyno serum albumin (A2V9Z4 25-608 limits assumed): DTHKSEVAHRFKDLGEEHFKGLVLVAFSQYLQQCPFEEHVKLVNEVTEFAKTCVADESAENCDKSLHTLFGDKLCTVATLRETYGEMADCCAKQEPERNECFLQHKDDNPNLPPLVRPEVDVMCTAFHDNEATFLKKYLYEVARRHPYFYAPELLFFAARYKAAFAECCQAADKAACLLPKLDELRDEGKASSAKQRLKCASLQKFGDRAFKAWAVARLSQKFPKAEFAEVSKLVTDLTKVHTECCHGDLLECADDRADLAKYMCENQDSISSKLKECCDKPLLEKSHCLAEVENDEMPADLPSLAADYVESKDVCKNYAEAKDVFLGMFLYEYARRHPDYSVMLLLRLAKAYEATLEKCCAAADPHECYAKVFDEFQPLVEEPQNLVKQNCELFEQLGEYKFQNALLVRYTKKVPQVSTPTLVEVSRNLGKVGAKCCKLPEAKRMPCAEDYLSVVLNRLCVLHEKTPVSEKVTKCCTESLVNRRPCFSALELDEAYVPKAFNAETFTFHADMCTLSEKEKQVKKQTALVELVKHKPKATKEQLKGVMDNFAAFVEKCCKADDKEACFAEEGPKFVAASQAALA

B1: SEQ ID NO 10 (VHH)
VHH: EVQLVESGGGVVQPGGSLRLSCAASGFTFRSFGMSWVRQAPGKGPEWVSSISGSGSDTLYADSVKGRFTISRDNSKNTLYLQMNSLRPEDTALYYCTIGGSLSRSSQGTLVTVSS
notes: also called R at position 30
For B1, the Kd in test [1] came out at 180 nM; in test [2], 6.8 nM; in [3], 0.83 nM; in test [4], 5.1 nM; in test [5] it was 0.89 nM. Further, the koff stood at 0.13 s⁻¹ in [1]; 0.0073 s⁻¹ in test [2]; 0.00084 s⁻¹ in [3]; 0.0063 s⁻¹ in [4]; 0.00081 s⁻¹ in [5]. Also, the kon in [1] came to 710000 M⁻¹ s⁻¹; in [2], 1.1e+06 M⁻¹ s⁻¹; in test [3], 1e+06 M⁻¹ s⁻¹; in [4] it was 1.2e+06 M⁻¹ s⁻¹; in [5], 910000 M⁻¹ s⁻¹.

B2: Reference A+L11V+V89T+C-terminal alanine, N-terminal HIS6 tag (VHH)
VHH: EVQLVESGGGVVQPGGSLRLSCAASGFTFRSFGMSWVRQAPGKGPEWVSSISGSGSDTLYADSVKGRFTISRDNSKNTLYLQMNSLRPEDTATYYCTIGGSLSRSSQGTLVTVSS
In test [6], B2 gave a Kd of 7.3 nM, an off-rate (koff) of 0.0023 s⁻¹ and a kon of 310000 M⁻¹ s⁻¹.

B3: Reference A+L11V+V89S+C-terminal alanine, N-terminal HIS6 tag (VHH)
VHH: EVQLVESGGGVVQPGGSLRLSCAASGFTFRSFGMSWVRQAPGKGPEWVSSISGSGSDTLYADSVKGRFTISRDNSKNTLYLQMNSLRPEDTASYYCTIGGSLSRSSQGTLVTVSS
In test [7], B3 yielded a dissociation constant (Kd) of 11 nM, a koff of 0.0017 s⁻¹ and a kon of 160000 M⁻¹ s⁻¹.

B4: Reference A+L11V+V89A+C-terminal alanine, N-terminal HIS6 tag (VHH)
VHH: EVQLVESGGGVVQPGGSLRLSCAASGFTFRSFGMSWVRQAPGKGPEWVSSISGSGSDTLYADSVKGRFTISRDNSKNTLYLQMNSLRPEDTAAYYCTIGGSLSRSSQGTLVTVSS
Turning to B4, in [8], the Kd is 7.3 nM, the koff amounted to 0.0019 s⁻¹ and the kon was 260000 M⁻¹ s⁻¹.

B5: Reference A+L11V+V89L+S104A+C-terminal alanine, N-terminal HIS6 tag (VHH)
VHH: EVQLVESGGGVVQPGGSLRLSCAASGFTFRSFGMSWVRQAPGKGPEWVSSISGSGSDTLYADSVKGRFTISRDNSKNTLYLQMNSLRPEDTALYYCTIGGSLSRSAQGTLVTVSS
In [9], B5 yielded a Kd of 30 nM, a dissociation rate constant (koff) of 0.0022 s⁻¹ and a kon of 72000 M⁻¹ s⁻¹.

B6: Reference A+L11V+V89L+S104G+C-terminal alanine, N-terminal HIS6 tag (VHH)
VHH: EVQLVESGGGVVQPGGSLRLSCAASGFTFRSFGMSWVRQAPGKGPEWVSSISGSGSDTLYADSVKGRFTISRDNSKNTLYLQMNSLRPEDTALYYCTIGGSLSRSGQGTLVTVSS
In test [8], B6 showed a Kd of 8.3 nM, a koff of 0.0022 s⁻¹ and a kon of 260000 M⁻¹ s⁻¹.

B7: SEQ ID NO 127 (VHH)
VHH: DVQLVESGGGVVQPGGSLRLSCAASGFTFTSFGMSWVRQAPGKGPEWVSSISGSGSDTLYADSVKGRFTISRDNSKNTLYLQMNSLRPEDTALYYCTIGGSLSRSGQGTLVTVSS
notes: also called T at position 30
Consider B7, for which the Kd in test [1] worked out at 490 nM; in test [2], 21 nM; in test [3], 2 nM; in [4] it was 8.6 nM; in test [5] it was 2.1 nM. In addition, the koff in [1] was found to be 0.22 s⁻¹; in test [2], 0.017 s⁻¹; in [3], 0.0014 s⁻¹; in [4], 0.0075 s⁻¹; in [5], 0.0014 s⁻¹. The kon in test [1] worked out at 450000 M⁻¹ s⁻¹; in test [2] it was 820000 M⁻¹ s⁻¹; in test [3] it was 730000 M⁻¹ s⁻¹; in test [4], 870000 M⁻¹ s⁻¹; in test [5], 690000 M⁻¹ s⁻¹.

B8: Reference A+L11V+V89L+S101E+C-terminal alanine, N-terminal HIS6 tag (VHH)
VHH: EVQLVESGGGVVQPGGSLRLSCAASGFTFRSFGMSWVRQAPGKGPEWVSSISGSGSDTLYADSVKGRFTISRDNSKNTLYLQMNSLRPEDTALYYCTIGGSLERSSQGTLVTVSS
In test [9], B8 gave a Kd of 30 nM, a koff of 0.0044 s⁻¹ and a kon of 150000 M⁻¹ s⁻¹.

B9: Reference A+L11V+V89L+S101G+C-terminal alanine, N-terminal HIS6 tag (VHH)
VHH: EVQLVESGGGVVQPGGSLRLSCAASGFTFRSFGMSWVRQAPGKGPEWVSSISGSGSDTLYADSVKGRFTISRDNSKNTLYLQMNSLRPEDTALYYCTIGGSLGRSSQGTLVTVSS
In test [9], B9 returned a Kd of 16 nM, a koff of 0.0017 s⁻¹ and a kon of 110000 M⁻¹ s⁻¹.

B10: SEQ ID NO 145 (VHH)
VHH: DVQLVESGGGVVQPGGSLRLSCAASGFTFTSFGMSWVRQAPGKGPEWVSSISGSGSDTLYADSVKGRFTISRDNSKNTLYLQMNSLRPEDTAAYYCTIGGSLSRSGQGTLVTVSS
notes: also called T at position 30
For B10, the Kd in test [1] was 540 nM; in [2] it was 27 nM; in test [3], 2.1 nM; in test [4] it was 13 nM; in test [5], 2.3 nM. Moreover, the koff worked out at 0.23 s⁻¹ in [1]; 0.02 s⁻¹ in [2]; 0.0014 s⁻¹ in [3]; 0.01 s⁻¹ in [4]; 0.0015 s⁻¹ in [5]. Further, the kon in test [1] worked out at 420000 M⁻¹ s⁻¹; in [2], 750000 M⁻¹ s⁻¹; in test [3] it was 690000 M⁻¹ s⁻¹; in test [4] it was 790000 M⁻¹ s⁻¹; in test [5] it was 640000 M⁻¹ s⁻¹.

B11: Reference A+L11V+V89N+C-terminal alanine, N-terminal HIS6 tag (VHH)
VHH: EVQLVESGGGVVQPGGSLRLSCAASGFTFRSFGMSWVRQAPGKGPEWVSSISGSGSDTLYADSVKGRFTISRDNSKNTLYLQMNSLRPEDTANYYCTIGGSLSRSSQGTLVTVSS
As for B11, in test [10], the dissociation constant Kd is 3.1 nM, the koff was 0.0036 s⁻¹ and the kon worked out at 1.2e+06 M⁻¹ s⁻¹.

B12: Reference A+L11V+R30T+V89L+C-terminal alanine, N-terminal HIS6 tag (VHH)
VHH: EVQLVESGGGVVQPGGSLRLSCAASGFTFTSFGMSWVRQAPGKGPEWVSSISGSGSDTLYADSVKGRFTISRDNSKNTLYLQMNSLRPEDTALYYCTIGGSLSRSSQGTLVTVSS
Take B12: in test [7], the Kd was found to be 22 nM, the koff worked out at 0.0026 s⁻¹ and the kon came to 120000 M⁻¹ s⁻¹.

B13: Reference A+L11V+V89N+T110K+C-terminal alanine, N-terminal HIS6 tag (VHH)
VHH: HHHHHHEVQLVESGGGVVQPGGSLRLSCAASGFTFRSFGMSWVRQAPGKGPEWVSSISGSGSDTLYADSVKGRFTISRDNSKNTLYLQMNSLRPEDTANYYCTIGGSLSRSSQGTLVKVSSA
In test [10], B13 registered a Kd of 7.3 nM, a dissociation rate constant (koff) of 0.0016 s⁻¹ and a kon of 220000 M⁻¹ s⁻¹.

B14: Reference A+L11V+V89T+T110K+C-terminal alanine, N-terminal HIS6 tag (VHH)
VHH: HHHHHHEVQLVESGGGVVQPGGSLRLSCAASGFTFRSFGMSWVRQAPGKGPEWVSSISGSGSDTLYADSVKGRFTISRDNSKNTLYLQMNSLRPEDTATYYCTIGGSLSRSSQGTLVKVSSA
In test [6], B14 gave a Kd of 7.6 nM, an off-rate constant (koff) of 0.0021 s⁻¹ and a kon of 280000 M⁻¹ s⁻¹.

B15: Reference A+L11V+V89S+T110K+C-terminal alanine, N-terminal HIS6 tag (VHH)
VHH: HHHHHHEVQLVESGGGVVQPGGSLRLSCAASGFTFRSFGMSWVRQAPGKGPEWVSSISGSGSDTLYADSVKGRFTISRDNSKNTLYLQMNSLRPEDTASYYCTIGGSLSRSSQGTLVKVSSA
In test [10], B15 gave a Kd of 7.2 nM, a koff of 0.0015 s⁻¹ and a kon of 200000 M⁻¹ s⁻¹.

B16: Reference A+L11V+S31D+V89L+C-terminal alanine, N-terminal HIS6 tag (VHH)
VHH: EVQLVESGGGVVQPGGSLRLSCAASGFTFRDFGMSWVRQAPGKGPEWVSSISGSGSDTLYADSVKGRFTISRDNSKNTLYLQMNSLRPEDTALYYCTIGGSLSRSSQGTLVTVSS
In the case of B16, in test [7], the Kd came to 20 nM, the koff was found to be 0.0032 s⁻¹ and the kon stood at 160000 M⁻¹ s⁻¹.

B17: Reference A+L11V+V89A+T110K+C-terminal alanine, N-terminal HIS6 tag (VHH)
VHH: HHHHHHEVQLVESGGGVVQPGGSLRLSCAASGFTFRSFGMSWVRQAPGKGPEWVSSISGSGSDTLYADSVKGRFTISRDNSKNTLYLQMNSLRPEDTAAYYCTIGGSLSRSSQGTLVKVSSA
In test [8], B17 had a dissociation constant Kd of 6.5 nM, an off-rate constant (koff) of 0.0018 s⁻¹ and a kon of 270000 M⁻¹ s⁻¹.

B18: Reference A+L11V+V89T+S104T+C-terminal alanine, N-terminal HIS6 tag (VHH)
VHH: EVQLVESGGGVVQPGGSLRLSCAASGFTFRSFGMSWVRQAPGKGPEWVSSISGSGSDTLYADSVKGRFTISRDNSKNTLYLQMNSLRPEDTATYYCTIGGSLSRSTQGTLVTVSS
Turning to B18, in [6], the affinity, expressed as Kd, was 12 nM; the off-rate constant (koff) turned out to be 0.0033 s⁻¹; the kon worked out at 280000 M⁻¹ s⁻¹.

B19: SEQ ID NO 129 (VHH)
VHH: DVQLVESGGGVVQPGGSLRLSCAASGFTFTSFGMSWVRQAPGKGPEWVSSISGSGSDTLYADSVKGRFTISRDNSKNTLYLQMNSLRPEDTATYYCTIGGSLSRSGQGTLVTVSS
notes: also called T at position 30
For the molecule B19, the Kd in [1] came out at 490 nM; in [2] it was 27 nM; in [3], 2.1 nM; in test [4], 13 nM; in test [5], 2.4 nM. Besides, the koff in test [1] was 0.21 s⁻¹; in [2], 0.021 s⁻¹; in [3], 0.0015 s⁻¹; in test [4], 0.0098 s⁻¹; in [5], 0.0015 s⁻¹. Also, the kon is 430000 M⁻¹ s⁻¹ in test [1]; 770000 M⁻¹ s⁻¹ in test [2]; 710000 M⁻¹ s⁻¹ in test [3]; 790000 M⁻¹ s⁻¹ in [4]; 640000 M⁻¹ s⁻¹ in test [5].
